Test results taken from publication PMC6773690, “Scribble co-operatively binds multiple α1D-adrenergic receptor C-terminal PDZ ligands” (Scientific Reports, 2019).
Ends that are not written are not given here. BG‑782 = not defined here

Experiments:
[1] = target: biotin-labeled peptide containing the last 20 amino acids of the α1D-adrenergic receptor C-terminus (human) (UniProt P25100); test: BLI; Octet Red 96; 50 nM biotin-labeled α1D-CT peptide immobilised on streptavidin probes, then biocytin; serial dilutions of purified PDZ proteins as analytes until steady state; 20 mM Tris-HCl pH 8.0, 200 mM NaCl, 0.1% bovine serum albumin
[2] = target: GST-SCRIB ΔPDZ34 (C-terminal truncation mutant missing PDZ3 and PDZ4); test: pull-down; SNAP GST-pulldown: 1 μM GST-tagged SCRIB proteins on glutathione agarose beads with serial dilutions of BG-782-labeled SNAP-α1D-CT, 1 h at 4 °C; washes 20 mM Tris-HCl pH 8.0, 200 mM NaCl, 0.05% NP-40; PAGE NIR
[3] = target: GST-SCRIB ΔPDZ4 (C-terminal truncation mutant missing PDZ4); test: as above
GST-SCRIB PDZ domain 3 = target: T1, GST-SCRIB PDZ domain 3 (UniProt Q14160 1004-1093); test: BLI; Octet Red 96; 50 nM biotin-labeled α1D-CT peptide immobilised on streptavidin probes, then biocytin; serial dilutions of purified PDZ proteins as analytes until steady state; 20 mM Tris-HCl pH 8.0, 200 mM NaCl, 0.1% bovine serum albumin; conditions: both partners purified
T1 construct: scribble (SCRIB), PDZ domain 3 alone; also called SCRIB PDZ3; PDZ3; source: E. coli Rosetta (DE3), purified (glutathione agarose); not shown: GST, N-terminal, kept
T1 sequence (looked up): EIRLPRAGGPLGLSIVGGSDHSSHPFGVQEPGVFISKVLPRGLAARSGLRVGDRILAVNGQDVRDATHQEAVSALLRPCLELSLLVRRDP

GST-SCRIB PDZ domain 1 = target: T2, GST-SCRIB PDZ domain 1 (UniProt Q14160 728-815); test: as above; conditions: both partners purified
T2 construct: scribble (SCRIB), PDZ domain 1 alone; also called SCRIB PDZ1; PDZ1; source: E. coli Rosetta (DE3), purified (glutathione agarose); not shown: GST, N-terminal, kept

[4] = target: T3, calcium/calmodulin-dependent serine protein kinase (CASK) PDZ domain (UniProt O14936 489-564); test: as above; conditions: both partners purified
T3 construct: calcium/calmodulin-dependent serine protein kinase (CASK), PDZ domain; The methods elute GST proteins with glutathione; TEV cleavage is told only for crystallography; source: E. coli Rosetta (DE3), purified (glutathione agarose)
T3 sequence (looked up): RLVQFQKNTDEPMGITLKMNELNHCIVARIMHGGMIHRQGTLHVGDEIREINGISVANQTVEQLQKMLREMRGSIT

GST-SCRIB PDZ domain 2 = target: T4, GST-SCRIB PDZ domain 2 (UniProt Q14160 862-950); test: as above; conditions: both partners purified
T4 construct: scribble (SCRIB), PDZ domain 2 alone; also called SCRIB PDZ2; PDZ2; source: E. coli Rosetta (DE3), purified (glutathione agarose); not shown: GST, N-terminal, kept
T4 sequence (looked up): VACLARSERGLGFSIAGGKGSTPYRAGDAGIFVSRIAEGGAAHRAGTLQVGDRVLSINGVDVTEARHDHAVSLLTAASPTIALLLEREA

[5] = target: T5, α1-syntrophin (SNTA) PDZ domain (UniProt Q13424 87-170); test: as above; conditions: both partners purified
T5 construct: α1-syntrophin (SNTA), PDZ domain; The methods elute GST proteins with glutathione; TEV cleavage is told only for crystallography; source: E. coli Rosetta (DE3), purified (glutathione agarose)
T5 sequence (looked up): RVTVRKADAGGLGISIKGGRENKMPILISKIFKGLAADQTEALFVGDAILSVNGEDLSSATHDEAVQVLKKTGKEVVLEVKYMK

GST-SCRIB PDZ domain 4 = GST-SCRIB PDZ domain 4 (UniProt Q14160 992-1203); test: as above; conditions: both partners purified
[6] = target: GST-SCRIB containing all 4 PDZ domains (WT); test: BLI; reverse BLI: GST-SCRIB immobilised on anti-GST probes, serial dilutions of biotin-labeled α1D-CT as analyte; 20 mM Tris-HCl pH 8.0, 200 mM NaCl, 0.1% bovine serum albumin

T2 sequence (Q14160 728-815): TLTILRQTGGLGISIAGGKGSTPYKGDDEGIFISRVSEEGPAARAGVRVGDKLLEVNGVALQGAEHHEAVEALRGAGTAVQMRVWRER

How did the Kd [1] turn out when “GST-SCRIB H793A (PDZ1 mutation in SCRIB with all 4 PDZ domains) (domain or fragment)” was run?
The Kd was 7340 nM.

How did the Kd [1] turn out when “human discs large MAGUK scaffold protein 1 (DLG1) PDZ domains (domain or fragment)” was run?
The Kd was 790 nM.

“GST-SCRIB ΔPDZ4 (C-terminal truncation mutant missing PDZ4) (domain or fragment)” was tested. Which Kd [1] did it give?
Its Kd is 140 nM.

Which Kd [1] does the source give for “GST-SCRIB containing all 4 PDZ domains (WT) (domain or fragment)” here?
Its Kd is 70 nM.

With “GST-SCRIB ΔPDZ34 (C-terminal truncation mutant missing PDZ3 and PDZ4) (domain or fragment)” as the molecule, how does the Kd [1] read?
Its Kd is 160 nM.

“GST-SCRIB H1170A (PDZ4 mutation in SCRIB with all 4 PDZ domains) (domain or fragment)” was tested. Which Kd [1] did it give?
The Kd was 320 nM.

Which Kd [1] does the source give for “SCRIB PDZ3 and PDZ4 (PDZ34) (domain or fragment)” here?
Its Kd is 340 nM.

With {BG‑782-SNAP tag}-QAYELADYSNLRETDI (not fully specified; reading uncertain) as the molecule, how does the maximal binding response, % of SCRIB WT (% of SCRIB WT) [2] read?
The maximal binding response, % of SCRIB WT (% of SCRIB WT) was 34.

What about the maximal binding response, % of SCRIB WT (% of SCRIB WT) [3] of the same molecule?
The maximal binding response, % of SCRIB WT (% of SCRIB WT) was 48.

B1: biotin-labeled peptide containing the last 20 amino acids of the α1D-adrenergic receptor C-terminus (peptide, UniProt P25100 553-572, looked up)
peptide: GATCQAYELADYSNLRETDI
modifications: also: biotin label (position not given here)
notes: α1D-adrenergic receptor, distal (last) 20 amino acids of the C-terminus; also called α1D-CT; α1D-AR C-terminal PDZ ligand; source: synthetic peptide, bought: BioMatik
How did the Kd (GST-SCRIB PDZ domain 3) turn out when B1 was run?
The Kd was 44200 nM.

What about the Kd (GST-SCRIB PDZ domain 1) of the same molecule?
Its Kd is 1930 nM.

What about the Kd [4] of the same molecule?
Its Kd is 1150 nM.

And the Kd (GST-SCRIB PDZ domain 2)?
Its Kd is 14900 nM.

What about the Kd [5] of the same molecule?
Its Kd is 560 nM.

What about the Kd (GST-SCRIB PDZ domain 4) of the same molecule?
Its Kd is 1140 nM.

And the Kd [6]?
The Kd was 76 nM.
